The nature of this data set: yeast display, Sf9 membrane polyspecificity reagent, FACS + sequencing; frameworks hold sequencing errors. An outline of the steps:
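Sorting gates, low and high (top ~1%), were placed on anti-HA fluorescence to track expression and on streptavidin fluorescence to track reagent binding. A clone's polyreactivity label is taken from the gate it came out of. The reagent was 10% biotinylated, detergent-solubilized Sf9 membrane, applied for 1 hour at 4 °C to galactose-induced yeast display cells.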
In the case of “QVQLVESGGRLVQAGGSLRLSGAASGITLGTYLMGWYRQAPGKEREMLAAISSGGSTYYADSVKGRFTISRDNAKNTVFLQMNSLKPEDTAVYYCAAQYYPYYDSRVSYDYWGQGTQVTVSS”, the “polyreactivity (PSR sort gate)” value is reported as “low polyreactivity”. As to “QVQLVESGGRLVQAGGSLRLSSAASGGTFYRNARGWYRQAPGKERELVASISRTGGSTYYADSVKGRFTISRDNAKNTVYLQMNSLKQVDTAVYYCAKKQPRYSYFDNDYWGQGTQVTVSS”, the “polyreactivity (PSR sort gate)” value is given as “high polyreactivity”.

Regarding “QVQLVESGGRLVQAGGSLRLTCAASGSTFSRYAMGWSRQAPGKERELVAAITGSGGNTYYADSVKGRFTISRDNAKNTVYLQMNSLKPEDTAVYYCAAEDYVGWYNFEYWGQGTQVTVSS”, the “polyreactivity (PSR sort gate)” value is “high polyreactivity”. Regarding “QVQLVESGGRLVQAGGSLRLTCAASGSTFTTYAMGWSRQAPGKERELVAAITSGSSTNYADSVKGRFTISRDNAKNTVYLQMNSLKPEDTAVYYCAVDREWPGYYYAISKMYYWGQGTQVTVSS”, the “polyreactivity (PSR sort gate)” value was “low polyreactivity”.

Turning to “QVQLVESGGRLVQAGGSLRLTCDASGRTFDYNAMGWYRQAPWKERQLVAAITSRGGSTYYADSVKGRFTISRDNAKNTVYLQMNSLKPEDTAVYYCAAQHSVLAYFEYDYWGQGTQVTVSS”, the “polyreactivity (PSR sort gate)” value is “low polyreactivity”.

Take “QVQLVESGGRLVQAGRSLRLSCAASGRTLKQYVMGWYRQAPGKERELVAAISRRGSSTYYADSVKGRFTISRDNAKNTVYLQMYSLKPEDTAVYYCAAPVYTTRHITAAYEEYGYWGQGTQVNVSS”: the “polyreactivity (PSR sort gate)” value is listed as “high polyreactivity”.

“QVQLVESGGRLVQSGGSLRLSCAASGRIFLYYTMGWYRQAPGKERELVATIRSGDSTNYADSVKGRFTISRDNAKNTVYLQMNSLKPEVTAVYYCAADWDIFQQGANGAPYDYWGQGTQVTVSS”: the “polyreactivity (PSR sort gate)” value is recorded as “low polyreactivity”.

As for “QVQLVESGGSLVQAGGSHRLSCAASRSIFPPYAMGWYRPAAGKERELVAAITLRGGSTYYADSVKGRFTISRDNAKNTVYLQMNSLKPEDTAVYYCAAYKSAREYYWGQGTQVTVSS”, the “polyreactivity (PSR sort gate)” value is “high polyreactivity”. Turning to “QVQLVESGGSLVQAGGSLRLICAASGITFWPYAMGWYRPAPGKERELVAAINSGGDTYYADSVKGRFTISRDNAKNSVYLQMNILKPEDTAVYYCAKGRDWADEEGYEYWGQGTQVTVSS”, the “polyreactivity (PSR sort gate)” value is on record as “low polyreactivity”. For “QVQLVESGGSLVQAGGSLRLSCAASGYTIDSYGMGWYRQAPGKERELVAPIDWSGGSTYYADSVKGRFTIARDTAKNTVYLQKNSLIPDDSAVYYCNRDSAGPGDVILAYTGNDYWGQGTQVTVSS”, the “polyreactivity (PSR sort gate)” value is on record as “low polyreactivity”. Take “QVQLVESGGSLVQSGGSLRLSCAASGSIFYRNAMGWYRQEPGKERELVASITSGGRTNYADSVKGRFTISRDNAKNTVYLQMNSLKPEDTAVYYCARGRASYTKSGPTPYTGYGYWGQGTQVTVSS”: the “polyreactivity (PSR sort gate)” value is “low polyreactivity”. Turning to “QVQLVESGGVLDQARGSLRLSCAASGRIFGYNAMGWYRQAPGKERELVAAISWGGGRTYYADSVKGRFTISRDNAKNTVYLQMNSLKPEDTAVYYCNALYVGYYDSMGYWGQGTQVTVSS”, the “polyreactivity (PSR sort gate)” value is reported as “high polyreactivity”. The entry for “QVQLVESGGVLDQGGGSLRLSCASSGITYRRYAMGWYRQAPGKERELVAANTYGGGSTYYADSVKGRFTISRDNAKNTVYLQMNSLKPADTAVFYCYARYSGGFGGGSKPDYYWGQGTQVTVAS” is “high polyreactivity”; for “QVQLVESGGVLVQAGCSLRLSCAASGRTIPWYTMGWYRQAPRKERELVAAISNGGSTYYADSVKGRFTISRDNAKNTVYLQMNSLIPEDTAVYYCNSLVYKYIYNYDYWGQGTQVTVSS” it is “high polyreactivity”. “QVQLVESGGVLVQAGGILRLSCAASGNIVVYYAMGWSRQAPGKERELVASITTSGGSTYYADSVKGRFTISRDNATNTVYFQMNSLKPEDTAVYYCAALYYYWLYYWGQGTQVTVSW”: the “polyreactivity (PSR sort gate)” value is given as “low polyreactivity”. Take “QVQLVESGGVLVQAGGRLGLSCAASGSTLRAYAMGWYRQATGKVRELVATISSGGRTYYADSVKGRFTISRDNAKNTVYLQMNSLKPEDTAVYYSAKREHGFFYYTYDYWGQGTQVTVSS”: the “polyreactivity (PSR sort gate)” value is listed as “low polyreactivity”. As to “QVQLVESGGVLVQAGGRLSLICAASGRTFARYVMGWYRKAPGKERELVAAINSGGTTYYADSVKGRFTISRDNAKNTVYLQMNSLKPEDTAVYYCNARRGHYAYDYWGQGTQVTVSS”, the “polyreactivity (PSR sort gate)” value is on record as “high polyreactivity”. On to “QVQLVESGGVLVQAGGSLRLSCAASGFIFETYVMGWYRQAPGKERELVDAISGGGSTYYADSVKGRFTISRDNAKKTVYLQMNSLKPEDTAVYYCAAKSGSFVHGGYQTPVYGSDYWGQGTQVTVSS”, for which the “polyreactivity (PSR sort gate)” value is “high polyreactivity”. Consider “QVQLVESGGVLVQAGGSLRLSCAASGFIFYSYDMGWYRQAPGKERELDAAIRSDGSTYYADTVKGRFTISRDNAKNTVYLQMYSLKPEDTAVYDCAAKYGVRYWHYYSWTNDYWGQGTQVTVSS”, for which the “polyreactivity (PSR sort gate)” value is on record as “low polyreactivity”. Regarding “QVQLVESGGVLVQAGGSLRLSCAASGFTFQAYTMGWYRQAPVKERELVAAISRSGGRTYYADSVKGRFTISRDNAKNTVYLQMNSLKPEDTAVYYCAKRTTYSDDYWGQGTQVTVSS”, the “polyreactivity (PSR sort gate)” value was “high polyreactivity”. “QVQLVESGGVLVQAGGSLRLSCAASGIIFFYNAMGWYRQAPGKERELVAAISARGGRTYYADSVKGRFTISRDNAKNTVYLQMNSLKPEDTAVYYCNAYRYGWEDMDYWGQGTQVTVSS”: the “polyreactivity (PSR sort gate)” value is given as “high polyreactivity”.

For “QVQLVESGGVLVQAGGSLRLSCAASGIIYYGYAMGWYRQAPRKERELVAAISRSGGSTYYADSVKGRFTISRDNAMNTVYFLMNSLKPEDTAVYYCAALVRTTSSYRYNFWGQGTQVTVSS”, the “polyreactivity (PSR sort gate)” value is recorded as “high polyreactivity”. With “QVQLVESGGVLVQAGGSLRLSCAASGLIFATYAMGWSRQAPGKERELVAAISSNGDRTYYADSVKGGFTISRDNAKNTVYLQMNCLKPEDTAVYYCARLYLVQSRYPEMDFWGQGTQVTVSS”, the “polyreactivity (PSR sort gate)” value is reported as “high polyreactivity”.

Take “QVQLVESGGVLVQAGGSLRLSCAASGLIFSRYVMGWYRQAPGKERELVAAISRSGGSTYYADSVKGRFTISRDNAKNTVYLQMNSLKPEDTAVYYCNKLAPAPEADDYWGQGTQLTVSS”: the “polyreactivity (PSR sort gate)” value was “high polyreactivity”. Turning to “QVQLVESGGVLVQAGGSLRLSCAASGLTFGGNAKGWYRPAPGKERELVAAISWSDDTTDYADSVKGRFTISRDNAKNTVYLQMNSLKPEDTAVYYCAARLPFEYVDYWGQGTQVTVSS”, the “polyreactivity (PSR sort gate)” value is recorded as “low polyreactivity”. As to “QVQLVESGGVLVQAGGSLRLSCAASGLTFKWYAMGWYRQAPGKERELVAAITKSGGTTYADSVKGRFTISRDNAKNTVYLQMNSLKPEDTAVYYCAARYWRLWNTVRYEGDFSDGYWGQGTQVTVSS”, the “polyreactivity (PSR sort gate)” value is recorded as “high polyreactivity”.

On to “QVQLVESGGVLVQAGGSLRLSCAASGNIFYAYAMGWYRQAPGKERELVAAISWSGDSTYYADSVKGRFTISRDNAKNTVNLQMNSLKPEETAVEYCAADSYRFYSGYYYWGQGTQVTVSS”, for which the “polyreactivity (PSR sort gate)” value is “low polyreactivity”. Regarding “QVQLVESGGVLVQAGGSLRLSCAASGRIFRYYAMGWYRQAPGKERELVAAISSDGSTDYADSVKGRFTISRDNAKNTVYLLMNSLKPEDTAVYYCAASVVSYGHDYWGQGTQVTVSS”, the “polyreactivity (PSR sort gate)” value is reported as “low polyreactivity”.

On to “QVQLVESGGVLVQAGGSLRLSCAASGRIFSSYAMGWNRHAPGKERELVATSRRADSTYYADSVKGRFTISRDNAKNTVYLQMNSLKPEDTAVYYCAADTRLSRLIHRYDYWGQGTQVTVSS”, for which the “polyreactivity (PSR sort gate)” value is recorded as “low polyreactivity”.

In the case of “QVQLVESGGVLVQAGGSLRLSCAASGRTFFNYAMGWYRQAPGKESEFVASISWSDVITYYADSVKGRFTISRDNAKNTVYLQMNSLKQEDTAVYYCAASKVGGGEEYWGQGTQVTVSS”, the “polyreactivity (PSR sort gate)” value is “low polyreactivity”. In the case of “QVQLVESGGVLVQAGGSLRLSCAASGRTFFRYTMGWYRPAPGKERELVAAISRSDGSTYYADSVKGRFTISRDNAKNTVYLQMNSLKPEDTAVYYCAKSLPSGYYYWGQGTQVTVSS”, the “polyreactivity (PSR sort gate)” value was “low polyreactivity”. In the case of “QVQLVESGGVLVQAGGSLRLSCAASGRTFLYNAMGWYRQAPGKERELVAAISSRGARTYYADSVKGRFTISRDNAKKTVYLQMNSLKPEDTAVYYCAASYTTAYYRYDYWGQGTQVTVSS”, the “polyreactivity (PSR sort gate)” value is recorded as “high polyreactivity”. On to “QVQLVESGGVLVQAGGSLRLSCAASGRTFTPYTMGCDRPAPGKERELVAAISWSGGTTYYADSVMGRFTISRDNSKITVYLQMNSLKRVDTAVYYCAARVSRTCHGYYYFWGQGTQVTVSS”, for which the “polyreactivity (PSR sort gate)” value is “high polyreactivity”.

For the sequence “QVQLVESGGVLVQAGGSLRLSCAASGSIFGLYAMGWYRQAPGKERELVAAISRRSVSTYYADSVKGRFTISRDNAKNTVYLQMNSLKPEDTAVYYCAAVTYPYLRSQKGYDGYGYWGHGTQVTVSS”, the “polyreactivity (PSR sort gate)” value is reported as “high polyreactivity”. “QVQLVESGGVLVQAGGSLRLSCAASGSIFGVYTMGWYRQAPGKERELVAAISGSGGSTYYADSVKGRFTISRDNAMNTVYLQMNSLKPEDTAVYYCATRFPKIPPYDSWGQGTQVTVSS”: the “polyreactivity (PSR sort gate)” value was “low polyreactivity”. With “QVQLVESGGVLVQAGGSLRLSCAASGSIFTYYAMGWYRQAPGKEREFVAAISRSGGSTYYADSVKGRFTISRDNANNTVYLQMNSLKPEDTAVYYCNAYSYSDAGDDGDYWGQGTQVTVSS”, the “polyreactivity (PSR sort gate)” value is “low polyreactivity”. Regarding “QVQLVESGGVLVQAGGSLRLSCAASGSIFVPYAMGWYRQAPGKERELVAAISSGGSTNYADSVKGRFTISRDNAKNTVYLLMNSLKPEDTAVYYCAADRKYFYLWLDQEHRYYWGQGYQVTVSS”, the “polyreactivity (PSR sort gate)” value is “low polyreactivity”. For “QVQLVESGGVLVQAGGSLRLSCAASGSISFNAMGWYRQAPGKERELVAAITTSGGRTYYADSVKGRLTISRDNAKNTVSLQMNSLKPEDTAVYYCNVASKGRFARYAAEYVSWRQGTQVTVSS”, the “polyreactivity (PSR sort gate)” value is listed as “high polyreactivity”.

For the sequence “QVQLVESGGVLVQAGGSLRLSCAASGSTFDSYAMGWYRQAPGKERELVAAISYGGGSTYYADSVKGRFTISRDNAKNTVYLQMNSLKPEDTAVYYCAARNARGVVGRTESKVTYDYWGQGTQVTVSS”, the “polyreactivity (PSR sort gate)” value is on record as “high polyreactivity”. Consider “QVQLVESGGVLVQAGGSLRLSCAASGSTFGANAMGWNREAPGKEREFVAAISGSGTTTYYADSVKGRFTISRDNAKNSVYLHLNSLKQEDTAVYYCAKTRKAHWLEYWGQGTKVTVSS”, for which the “polyreactivity (PSR sort gate)” value was “low polyreactivity”.
